Target: wild-type E. coli ClpX (E. coli) (UniProt P0A6H1)
Chain of UniProt P0A6H1 (P0A6H1 whole entry): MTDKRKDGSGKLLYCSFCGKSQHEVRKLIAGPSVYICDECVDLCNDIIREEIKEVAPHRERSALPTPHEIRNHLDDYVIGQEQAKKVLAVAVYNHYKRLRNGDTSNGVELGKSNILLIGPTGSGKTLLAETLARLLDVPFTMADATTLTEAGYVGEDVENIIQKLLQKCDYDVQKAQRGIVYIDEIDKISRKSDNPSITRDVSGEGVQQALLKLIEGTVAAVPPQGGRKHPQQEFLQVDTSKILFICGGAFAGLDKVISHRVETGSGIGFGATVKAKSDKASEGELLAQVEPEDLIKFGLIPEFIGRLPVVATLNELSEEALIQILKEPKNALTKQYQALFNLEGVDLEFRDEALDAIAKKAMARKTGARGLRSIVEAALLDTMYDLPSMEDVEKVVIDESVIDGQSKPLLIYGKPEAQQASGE

rate of decapeptide cleavage by ClpP with ClpX•ATPγS, against ClpP alone: 9 fold
Substance: wild-type E. coli ClpP with a C-terminal His6 tag (from UniProt P0A6G7 15-207) (enzyme)

From paper PMC2885556
